The source of these data is PMC6048556.

A value given as a limit tells only on which side of the number the result lay.

The target in test [1] is PIP30/FAM192A (endogenous) (human (endogenous in U2OS, HeLa, U937)) (UniProt Q9GZU8). Description: co-IP.
Test [2] deals with PA28γ (endogenous) (human (endogenous in U2OS, HeLa, U937)) (UniProt P61289). The experiment in a line: co-IP.

Chain of UniProt Q9GZU8 (Q9GZU8 whole entry): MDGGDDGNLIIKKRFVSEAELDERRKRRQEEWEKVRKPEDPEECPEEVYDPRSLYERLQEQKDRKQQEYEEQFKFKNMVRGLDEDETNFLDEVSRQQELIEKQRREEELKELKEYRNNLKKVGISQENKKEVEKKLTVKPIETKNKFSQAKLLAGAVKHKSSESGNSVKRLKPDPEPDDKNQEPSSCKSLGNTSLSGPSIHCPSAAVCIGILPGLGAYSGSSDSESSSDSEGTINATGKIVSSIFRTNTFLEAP

As to “PA28γ (endogenous) (from UniProt P61289 1-254) (natural protein)”, the percent coprecipitated in test [1] is over 70%.
In test [2], “PIP30/FAM192A (endogenous) (from UniProt Q9GZU8 1-254) (natural protein)” gave a percent coprecipitated of over 70%.
